Measurements as given in PMC7883056 (The EMBO Journal, 2021).

Target: T1, N-GST-tagged Ythdf (full length) (Drosophila melanogaster, UniProt Q9VBZ5 1-700)
T1 sequence: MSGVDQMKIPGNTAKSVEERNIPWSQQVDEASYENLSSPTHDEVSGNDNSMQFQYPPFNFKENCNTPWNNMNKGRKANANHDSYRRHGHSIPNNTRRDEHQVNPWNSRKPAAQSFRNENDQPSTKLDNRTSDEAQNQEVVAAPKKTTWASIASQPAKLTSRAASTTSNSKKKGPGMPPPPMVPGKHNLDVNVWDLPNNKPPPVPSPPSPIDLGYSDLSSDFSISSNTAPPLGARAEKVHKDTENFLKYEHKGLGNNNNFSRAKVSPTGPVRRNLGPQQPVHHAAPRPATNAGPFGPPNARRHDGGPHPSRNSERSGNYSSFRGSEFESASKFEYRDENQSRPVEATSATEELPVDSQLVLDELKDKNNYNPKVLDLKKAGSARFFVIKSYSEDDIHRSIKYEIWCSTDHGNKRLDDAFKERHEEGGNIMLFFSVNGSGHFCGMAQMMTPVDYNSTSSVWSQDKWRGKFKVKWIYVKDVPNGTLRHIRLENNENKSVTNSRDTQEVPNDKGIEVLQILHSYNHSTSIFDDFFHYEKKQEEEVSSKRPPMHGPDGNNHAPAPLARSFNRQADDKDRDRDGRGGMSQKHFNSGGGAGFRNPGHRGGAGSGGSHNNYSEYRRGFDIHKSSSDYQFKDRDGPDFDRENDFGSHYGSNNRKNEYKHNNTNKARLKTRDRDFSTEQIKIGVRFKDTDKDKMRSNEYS
Assay: pull-down

B1: N-His6-tagged NT-Fmr1 (220-684) (domain or fragment)
chain: not shown
B1: binds.
